Some results are limits rather than exact numbers.

In one assay the target is T1, HLA-DR3 (human).
T1 chain 1: not shown
T1 chain 2: not shown
In words: competitive inhibition of 125I-labeled probe peptide binding to purified HLA-DR3. The settings on record: remark: other sources report otherwise.

The next assay deals with T2, HLA-DRB5*0101 (human).
T2 chain 1: not shown
T2 chain 2: not shown
Kind of assay: competition with 125I-labelled standard peptide, purified HLA-DR, gel filtration. The settings on record: remark: other sources report otherwise.

In assay [1] the target is HLA-A*0201 (purified HLA class I molecule) (human). In words: competition with 125I-labelled standard peptide for purified HLA, gel filtration. Particulars: remark: other sources report otherwise. In general terms: In gel filtration, larger molecules generally elute earlier.
Assay [2] concerns the target HLA-A*0101 (human). In words: competition with 125I-labelled probe peptide for purified HLA-A*0101, gel filtration; ratio = IC50 of standard peptide 944.02 / IC50 of test peptide. Particulars: remark: other sources report otherwise.
A further assay concerns the target HLA-A*1101 (human). In words: competition with 125I-labelled probe peptide on purified HLA-A*1101, relative to standard peptide 940.06. The settings on record: remark: other sources report otherwise; scale: ratio.
The target of another assay is HLA-A*0301 (human). In words: competition with 125I-labelled probe peptide on purified HLA-A*0301, gel filtration; ratio to standard peptide 941.12. The settings on record: remark: other sources report otherwise.
The target of assay [3] is HLA-A*2401 (purified HLA class I molecule) (human). In words: competition with 125I-labelled probe peptide for purified HLA, gel filtration.
Assay [4] deals with HLA-A*0101 (human). Kind of assay: competition with a 125I-labelled probe peptide for purified HLA-A*0101, gel filtration; ratio against the A*0101 standard peptide 944.02 [..] (25 nM). The settings on record: remark: other sources report otherwise.
The target in assay [5] is HLA-A*0101 (human). Kind of assay: competition with 125I-labelled probe peptide for purified HLA-A*0101, gel filtration. Particulars: remark: other sources report otherwise; scale: ratio.
Another assay has as its target HLA-B*0702 (human). In words: inhibition of 125I standard peptide binding to purified HLA. Particulars: remark: other sources report otherwise.
Assay [6] has as its target HLA-A*0301 (purified HLA class I molecule) (human). Kind of assay: competition with 125I-labelled probe peptide for purified HLA-A*0301, gel filtration. Particulars: remark: other sources report otherwise; scale: ratio.

B1: Her2/neu.958 (peptide)
peptide: CWMIDSECRPRFREL
One may read the IC50 as the point on the concentration scale where inhibition reaches its midpoint. B1: the results for the half-inhibitory concentration (IC50) with HLA-DR3 (human) and in the assay with HLA-DRB5*0101 (human) were less than 1000 nM and 1330 nM, respectively.

B2: HER2/neu peptide, position 484, 10 amino acids (peptide)
peptide: QLFRNPHQAL
On to B2, for which the relative binding ratio (IC50 of standard peptide / IC50 of test peptide) in assay [1] is 0.0003.

B3: HER2/neu peptide, position 773, 9 amino acids (peptide)
peptide: VMAGVGSPY
Turning to B3, the relative binding ratio with HLA-A*0101 (human) [2] came out at 0.04; in the assay with HLA-A*1101 (human), 0.0079; in the assay with HLA-A*0101 (human) [5], 0.04. Moreover, in the assay with HLA-A*0301 (human), the relative binding ratio (IC50 of standard peptide / IC50 of test peptide) (relative binding ratio) was 0.058. Besides, the relative binding ratio (IC50 of standard peptide / IC50 of test peptide) in [3] was 0.0001; with HLA-A*0101 (human) [4] it was 0.04.

B4: HER2/neu peptide, position 1149, 11 amino acids (peptide)
peptide: PPSPREGPLPA
In the case of B4, the relative binding ratio (ratio to standard peptide) with HLA-B*0702 (human) turned out to be 0.45.

B5: HER2/neu peptide, position 826, 10 amino acids (…) (peptide)
peptide: CMQIAKGMSY
On to B5, for which, in assay [6], the relative binding ratio was 0.0003.

These data come from patent publication US20040018971A1.
